Measurements taken from the DeepSol protein solubility set.

Experiment: soluble on expression in E. coli; label from the status in PepcDB or PDB records

Row | Sequence | soluble on expression in E. coli
1 | AIANSLVRRSAQQLSLWRTYCIKHNASEAASPGRNAGRPNYEEFIGRHQRQAQCSIVVQVSSEKSYEELYNYCSSFGSIMGAHHYCVRQDETLHYILLEYATSDEAAAAIGAGVTNGELSGVPVRSPFLWFRAAGGGRRSPKLVANTAPALLSLDGTRQVDQRHLLGLLRGAADIEEQVQQLYEHTRLNELGIRMRFLAALQVQQAIAGMFPAAQAQPFGSSVNGFGRMGCDLDLILRFDSDMGAKIPLEAAVPSRLVYHTKENLSNGRSQTQRHMECFGDMLHLFLPGVCHVRRILQARVPIIKYHHEHLDLEVDLSMSNLTGFYMSELLYMFGEMDPRVRPLTFTIRRWAQTCGLTNPSPGRWISNFSLTCLVMFFLQQLRQPILPTIGALAKAAEPGDSRVTEDGINCTFTRNVDRLGFRSRNQSSLSELLLQFFEFYSQFDFHNRAISLNEGKPLSKPDHSAMYIVNPLEQLLNVSKNVSLEECERLRIEVRNAAWVLESEVENASVPEGDGQELSCGLLNLFKHPEKAVIRPNMFFKPRMVEVSDLFEQKEAGATSSSTPPTPAITYKSASVRQQVQSIKAATRSELKQLRGSGSSVPTSSPNNRRRS | soluble
2 | AIAYTFDTTDHKSPCCNFQWYIFRKQGESRIITCELFGVIVSLENRWDWLEFMIDDSLQLTAFRCPKRDKLGMETLLQLGDVAQVTGNWKLSNGAFLNATKIAIHNNPDVECKYWLQQIQKYKSKVCELEIPSDWIRRQQRAHNLKTDAVLSFSAQVSTAAATCWKLWKKHFNQGGKISLQRLWEVIQRENCPKMQELSSCRRNQIVQLLIHLGYLIPLSKEPETYVLLIDDILDKQVMQIFNQNIASKTLSLREVAYRLEEYFHVEEISLERVEESILRLAYKEKVEQV | soluble
3 | AIIWRRAANLVLLDETGRRVDDLAFRSERADLAVIAGEGAERAVPEALEILSAARPILNRVRGLVRMGERRWDIVLDRGQRVLLPVEDPVAAVERMIALDEAEDLLDRDVISVDLR | not soluble
4 | AKIIFIEHNGTRHEVEAKPGLTVMEAARDNGVPGIDADCGGACACSTCHAYVDPAWVDKLPKALPTETDMIDFAYEPNPATSRLTCQIKVTSLLDGLVVHLPEKQI | soluble
5 | AKKLKKEYLDWYNQILEFSNLSNNSVKIDTPFKDNSLDNLKIYALYDQSRDMITLTDDGYTIFGLENNGVSINKFKKRKKIFEEHLSAYGIKYNDKTHEIFVQTNFKNFNKSKHNLLQCLIFVNDMYLLSNPKSQNIFTEDVANKLDEHNIYYGRDIPIIGSSGVVHNFDFFISAKKNQKEKFINVFSNPNNSMIIKSKITDAMQAKKIKRHRQNEFIFILNDSKKEINEHNKNLLHENYISTIDYSELDEKIGLL | not soluble
6 | AKLGAVYTEGGFVEGVNKKLGLLGDSVDIFKGIPFAAPTKALENPQPHPGWQGTLKAKNFKKRCLQATITQDSTYGDEDCLYLNIWVPQGRKQVSRDLPVMIWIYGGAFLMGSGHGANFLNNYLYDGEEIATRGNVIVVTFNYRVGPLGFLSTGDANLPGNYGLRDQHMAIAWVKRNIAAFGGDPDNITLFGESAGGASVSLQTLSPYNKGLIRRAISQSGVALSPWVIQKNPLFWAKKVAEKVGCPVGDAARMAQCLKVTDPRALTLAYKVPLAGLEYPMLHYVGFVPVIDGDFIPDDPINLYANAADIDYIAGTNNMDGHIFASIDMPAINKGNKKVTEEDFYKLVSEFTITKGLRGAKTTFDVYTESWAQDPSQENKKKTVVDFETDVLFLVPTEIALAQHRANAKSAKTYAYLFSHPSRMPVYPKWVGADHADDIQYVFGKPFATPTGYRPQDRTVSKAMIAYWTNFAKTGDPNMGDSAVPTHWEPYTTENSGYLEITKKMGSSSMKRSLRTNFLRYWTLTYLALPTVT | soluble
7 | AKTKAAVSMEGFSWGNYINSNSFIAAPVTCFKHAPMGTCWGDISENVRVEVPNTDCSLPTKVFWIAGIVKLAGYNALLRYEGFENDSGLDFWCNICGSDIHPVGWCAASGKPLVPPRTIQHKYTNWKAFLVKRLTGAKTLPPDFSQKVSESMQYPFKPCMRVEVVDKRHLCRTRVAVVESVIGGRLRLVYEESEDRTDDFWCHMHSPLIHHIGWSRSIGHRFKRSDITKKQDGHFDTPPHLFAKVKEVDQSGEWFKEGMKLEAIDPLNLSTICVATIRKVLADGFLMIGIDGSEAADGSDWFCYHATSPSIFPVGFCEINMIELTPPRGYTKLPFKWFDYLRETGSIAAPVKLFNKDVPNHGFRVGMKLEAVDLMEPRLICVATVTRIIHRLLRIHFDGWEEEYDQWVDCESPDLYPVGWCQLTGYQLQPPASQSSR | soluble
8 | ALGAPDGVTQGASLSRSIQPLLDAHPGKTGLHVLEKGEESLLARAWLADHATETIDVQYFIWSTDNIGILASEALLRAAERGVRVRVLVDDLLIDAPPESLLALARHPRIDIRIYNPTMTVGTSKVKRLGNVVTGFRSVNQRMHDKTALFDGVVGITGGRNMADEYYDYDQEYTFRDRDILMLGPAVAEAEASFARFWESPLAVPVEKLLKKGMKKMT | not soluble
9 | AMATAPRPLREQYLHFQPISTRWHDNDIYGHVNNVTYYAFFDTAVNTYLIERGGLDIQGGEVIGLVVSSSCDYFAPVAFPQRIEMGLRVARLGNSSVQYELALFLEGQREACAAGRFVHVFVERRSSRPVAIPQELRDALAALQSSAQ | soluble
10 | ANVKLLLPYILKWEGGFVHDPADAGGATNKGVTIATWKRVGYDKDGDGDIDVEDLKLLTDDDVLNRVLKPFYWDRWKADLIESQKVANILVDWVWGSGKYGIVIPQRILGVQADGIVGNKTLQAVNSADPDELFESIFDARREFLEDITARSIKKYEDSIGRKATERELLRHTNKRFLRGWLNRLEDI | not soluble
11 | APGAGPGVRRRQRSLEEIPRLGQLRFFFQLFVQGYALQLHQLQVLYKAKYGPMWMSYLGPQMHVNLASAPLLEQVMRQEGKYPVRNDMELWKEHRDQHDLTYGPFTTEGHHWYQLRQALNQRLLKPAEAALYTDAFNEVIDDFMTRLDQLRAESASGNQVSDMAQLFYYFALEAICYILFEKRIGCLQRSIPEDTVTFVRSIGLMFQNSLYATFLPKWTRPVLPFWKRYLDGWNAIFSFGKKLIDEKLEDMEAQLQAAGPDGIQVSGYLHFLLASGQLSPREAMGSLPELLMAGVDTTSNTLTWALYHLSKDPEIQEALHEEVVGVVPAGQVPQHKDFAHMPLLKAVLKETLRLYPVVPTNSRIIEKEIEVDGFLFPKNTQFVFCHYVVSRDPTAFSEPESFQPHRWLRNSQPATPRIQHPFGSVPFGYGVRACLGRRIAELEMQLLLARLIQKYKVVLAPETGELKSVARIVLVPNKKVGLQFLQRQC | not soluble
12 | APVNWGPGETNDSTTVEPVLDGPYQPTTFNPPVDYWMLLAPTAAGVVVEGTNNTDRWLATILVEPNVTSETRSYTLFGTQEQITIANASQTQWKFIDVVKTTQNGSYSQYGPLQSTPKLYAVMKHNGKIYTYNGETPNVTTKYYSTTNYDSVNMTAFCDFYIIPREEESTCTEYINNGLPPIQNTR | soluble
13 | AQQGVFTLPARINFGVTVLVNSAATQHVEIFVDNEPRAAFSGVGTGDNNLGTKVINSGSGNVRVQITANGRQSDLVSSQLVLANKLNLAVVGSEDGTDMDYNDSIVILNWPLG | soluble
14 | ASCETTVTSGDTMTYSTRSISVPASCAEFTVNFEHKGHMPKTGMGHNWVLAKSADVGDVAKEGAHAGADNNFVTPGDKRVIAFTPIIGGGEKTSVKFKVSALSKDEAYTYFCSYPGHFSMMRGTLKLEE | soluble
15 | ASIPSSASVQLDSYNYDGSTFSGKIYVKNIAYSKKVTVVYADGSDNWNNNGNIIAASFSGPISGSNYEYWTFSASVKGIKEFYIKYEVSGKTYYDNNNSANYQVST | soluble
16 | ATQSPGDSRRLSIQRAIQSLVHAAQCRNANCSLPSCQKMKRVVQHTKGCKRKTNGGCPICKQLIALAAYHAKHCQENKCPVPFCLNIKQKLRQQQLQHRLQQAQMLRRRMASMQ | soluble
17 | ATRSPGVVISDDEPGYDLDLFCIPNHYAEDLERVFIPHGLIMDRTERLARDVMKEMGGHHIVALCVLKGGYKFFADLLDYIKALNRNSDRSIPMTVDFIRLKSYCNDQSTGDIKVIGGDDLSTLTGKNVLIVEDIIDTGKTMQTLLSLVRQYNPKMVKVASLLVKRTPRSVGYKPDFVGFEIPDKFVVGYALDYNEYFRDLNHVCVISETGKAKYKA | soluble
18 | ATVKFKYKGEEKEVDISKIKKVWRVGKMISFTYDEGGGKTGRGAVSEKDAPKELLQMLEKQKK | soluble
19 | AVPSPPPASPRSQYNFIADVVEKTAPAVVYIEILDRHPFLGREVPISNGSGFVVAADGLIVTNAHVVADRRRVRVRLLSGDTYEAVVTAVDPVADIATLRIQTKEPLPTLPLGRSADVRQGEFVVAMGSPFALQNTITSGIVSSAQRPARDLGLPQTNVEYIQTDAAIDFGNAGGPLVNLDGEVIGVNTMKVTAGISFAIPSDRLREFLHRGEKKNSSSGISGSQRRYIGVMMLTLSPSILAELQLREPSFPDVQHGVLIHKVILGSPAHRAGLRPGDVILAIGEQMVQNAEDVYEAVRTQSQLAVQIRRGRETLTLYVTPEVTE | soluble
20 | AVSLDRTRAVFDGSEKSMTLDISNDNKQLPYLAQAWIENENQEKIITGPVIATPPVQRLEPGAKSMVRLSTTPDISKLPQDRESLFYFNLREIPPRSEKANVLQIALQTKIKLFYRPAAIKTRPNEVWQDQLILNKVSGGYRIENPTPYYVTVIGLGGSEKQAEEGEFETVMLSPRSEQTVKSANYNTPYLSYINDYGGRPVLSFICNGSRCSVKKEKHHHHHH | soluble
21 | AYQLYRNTTLGNSLQESLDELIQSQQITPQLALQVLLQFDKAINAALAQRVRNRVNFRGSLNTYRFCDNVWTFVLNDVEFREVTELIKVDKVKIVACDGKNTGSNTTE | soluble
22 | CDQFVTDALKTFENTYLNDHLPHDIHKNVMRMVNHEVSSFGVVTSAEDSYLGAVDENTLEQATWSFLKDLKRITDSDLKGELFIKELLWMLRHQKDIFNNLARQFQKEVLCPNKCGVMSQTLIWCLKCEKQLHICRKSLDCGERHIEVHRSEDLVLDCLLS | not soluble
23 | DADAEFDIVIGNIEDIIMEDEFQHLQQSFMEKYYLEFDDSEENKLSYTPIFNEYIEILEKHLEQQLVERIPGFNMDAFTHSLKQHKDEVSGDILDMLLTFTDFMAFKEMFTDYRAEKEGRG | soluble
24 | DAVELFKKANAMLDEDEDERVDEAALRQLTEMGFPENRATKALQLNHMSVPQAMEWLIEHAEDPTIDTPL | soluble
25 | DAYIGVLIDDLVTKGTNEPYRLLTSRAEYRLLLRHDNADLRLTEIGHRIGLISDERYAAFEKKKAAIEAEKKRLHSVIIKPSPENQEYIRSLGGSELKDGVRGTDLMKRPEMNYETVTKLAPPEVPVPQDVAEQVEIQVKYEGYIEKSLQQVEKLKKMENKKIPDRIDYDAIKGIATEARQKLKNVRPLSVAQASRISGVNPADISILLVYLE | not soluble
26 | DDPQRVTWPTNAGTIQQALKRGYVVVAAGIRGRTTVDKSGQRVGQAPAFIVDMKAAIRYVKYNQGRLPGDTNRIITNGTSAGGATSALAGASGNSAYFEPALTALGAAPATDDIFAVSAYCPIHNLEHADMAYEWQFNGINDWHRYQPVAGTTKNGRPKFEPVSGQLTVEEQALSLALKAQFSTYLNQLKLTASDGTHLTLNEAGMGSFRDVVRQLLISSAQTAFDQGTDIHKYAGFVVTGNQVTDLDLSAYLKSLTRMKAVPAFDQLDLTSPENNLFGDATAKAKHFTALAQTRSTVTAQLADAELIQAINPLSYLTTTSSRVAKHWRIRHGAADRDTSFAIPIILAIMLENHGYGIDFALPWDIPHSGD | not soluble
27 | DGRITGMIQVAIDVTEQVVARKKLEESESRFRALVNASSDVVYRMNADWTVMRELEGRDFLTPAGTAMADWVETYTYREDRALVKATAAAAIEGKRIFELEHRVLKADGTIGWTFSRAIPILDEQ | not soluble
